Results taken from IntAct's records for PubMed 16778766.

B1: Estrogen receptor (Mus musculus), P19785 (parent)
chain: MTMTLHTKASGMALLHQIQGNELEPLNRPQLKMPMERALGEVYVDNSKPTVFNYPEGAAYEFNAAAAAAAAASAPVYGQSGIAYGPGSEAAAFSANSLGAFPQLNSVSPSPLMLLHPPPQLSPFLHPHGQQVPYYLENEPSAYAVRDTGPPAFYRSNSDNRRQNGRERLSSSNEKGNMIMESAKETRYCAVCNDYASGYHYGVWSCEGCKAFFKRSIQGHNDYMCPATNQCTIDKNRRKSCQACRLRKCYEVGMMKGGIRKDRRGGRMLKHKRQRDDLEGRNEMGASGDMRAANLWPSPLVIKHTKKNSPALSLTADQMVSALLDAEPPMIYSEYDPSRPFSEASMMGLLTNLADRELVHMINWAKRVPGFGDLNLHDQVHLLECAWLEILMIGLVWRSMEHPGKLLFAPNLLLDRNQGKCVEGMVEIFDMLLATSSRFRMMNLQGEEFVCLKSIILLNSGVYTFLSSTLKSLEEKDHIHRVLDKITDTLIHLMAKAGLTLQQQHRRLAQLLLILSHIRHMSNKGMEHLYNMKCKNVVPLYDLLLEMLDAHRLHAPASRMGVPPEEPSQTQLATTSSTSAHSLQTYYIPPEAEGFPNTI

Variants of: B1
Conditions: with cnot1_human CNOT1, A5YKK6
cnot1_human CNOT1, A5YKK6, sequence (A5YKK6 whole entry): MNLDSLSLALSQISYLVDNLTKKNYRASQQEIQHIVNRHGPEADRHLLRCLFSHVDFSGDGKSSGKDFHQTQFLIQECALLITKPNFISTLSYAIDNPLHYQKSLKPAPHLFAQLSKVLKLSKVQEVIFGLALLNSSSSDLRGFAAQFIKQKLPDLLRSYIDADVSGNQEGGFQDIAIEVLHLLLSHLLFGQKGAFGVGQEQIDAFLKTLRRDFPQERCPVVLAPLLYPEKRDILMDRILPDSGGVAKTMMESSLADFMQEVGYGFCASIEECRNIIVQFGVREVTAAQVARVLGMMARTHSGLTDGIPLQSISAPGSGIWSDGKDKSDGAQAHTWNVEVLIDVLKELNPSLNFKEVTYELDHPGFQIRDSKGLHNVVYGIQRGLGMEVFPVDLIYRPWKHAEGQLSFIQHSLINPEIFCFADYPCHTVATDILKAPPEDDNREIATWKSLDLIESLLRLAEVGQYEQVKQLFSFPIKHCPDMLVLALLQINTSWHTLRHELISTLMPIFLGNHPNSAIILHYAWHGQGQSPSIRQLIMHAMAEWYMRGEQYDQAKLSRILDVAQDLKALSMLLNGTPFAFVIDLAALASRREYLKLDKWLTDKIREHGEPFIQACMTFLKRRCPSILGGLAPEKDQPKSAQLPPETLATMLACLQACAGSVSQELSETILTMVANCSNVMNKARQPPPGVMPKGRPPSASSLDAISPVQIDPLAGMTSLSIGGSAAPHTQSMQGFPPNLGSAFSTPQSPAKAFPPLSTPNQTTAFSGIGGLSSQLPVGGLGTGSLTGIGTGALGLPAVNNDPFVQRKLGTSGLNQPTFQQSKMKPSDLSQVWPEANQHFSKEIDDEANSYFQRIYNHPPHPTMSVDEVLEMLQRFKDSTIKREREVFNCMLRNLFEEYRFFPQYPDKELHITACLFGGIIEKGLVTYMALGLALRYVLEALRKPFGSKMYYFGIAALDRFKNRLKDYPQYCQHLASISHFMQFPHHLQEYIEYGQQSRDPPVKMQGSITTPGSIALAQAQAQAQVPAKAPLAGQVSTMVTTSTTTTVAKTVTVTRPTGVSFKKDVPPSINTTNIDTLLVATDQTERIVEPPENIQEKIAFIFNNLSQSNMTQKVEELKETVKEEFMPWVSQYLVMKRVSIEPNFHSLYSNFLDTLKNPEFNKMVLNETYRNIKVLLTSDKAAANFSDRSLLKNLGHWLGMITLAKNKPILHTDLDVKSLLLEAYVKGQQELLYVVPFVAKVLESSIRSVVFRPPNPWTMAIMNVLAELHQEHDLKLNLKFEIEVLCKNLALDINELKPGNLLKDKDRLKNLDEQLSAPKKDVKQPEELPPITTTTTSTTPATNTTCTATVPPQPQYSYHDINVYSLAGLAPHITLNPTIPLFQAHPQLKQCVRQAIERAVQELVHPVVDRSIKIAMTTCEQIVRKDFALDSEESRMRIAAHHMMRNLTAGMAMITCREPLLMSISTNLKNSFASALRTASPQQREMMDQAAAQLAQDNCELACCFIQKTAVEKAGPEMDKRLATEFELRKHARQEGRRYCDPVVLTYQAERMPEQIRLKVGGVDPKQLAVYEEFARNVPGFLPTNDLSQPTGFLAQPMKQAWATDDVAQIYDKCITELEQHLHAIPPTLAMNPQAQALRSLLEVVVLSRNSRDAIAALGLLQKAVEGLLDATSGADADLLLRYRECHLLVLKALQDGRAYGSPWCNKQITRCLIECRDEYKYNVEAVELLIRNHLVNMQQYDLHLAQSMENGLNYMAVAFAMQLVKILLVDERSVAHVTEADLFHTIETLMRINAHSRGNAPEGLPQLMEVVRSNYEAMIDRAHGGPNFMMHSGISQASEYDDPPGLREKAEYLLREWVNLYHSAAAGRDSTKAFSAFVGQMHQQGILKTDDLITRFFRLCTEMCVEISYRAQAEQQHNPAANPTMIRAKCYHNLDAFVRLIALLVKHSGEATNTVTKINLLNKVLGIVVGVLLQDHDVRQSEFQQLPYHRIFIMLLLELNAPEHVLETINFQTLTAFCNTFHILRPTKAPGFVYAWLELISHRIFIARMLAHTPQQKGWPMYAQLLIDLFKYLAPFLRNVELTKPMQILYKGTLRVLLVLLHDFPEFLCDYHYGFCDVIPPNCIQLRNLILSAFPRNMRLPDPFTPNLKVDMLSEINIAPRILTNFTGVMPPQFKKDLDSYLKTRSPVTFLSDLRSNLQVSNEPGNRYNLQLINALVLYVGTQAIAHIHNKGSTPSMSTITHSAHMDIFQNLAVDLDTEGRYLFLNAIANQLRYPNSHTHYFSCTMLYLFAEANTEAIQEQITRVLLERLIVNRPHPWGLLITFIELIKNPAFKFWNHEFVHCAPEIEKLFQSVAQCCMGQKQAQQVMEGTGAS

Row | effect of a mutation on the interaction | Variant
1 | disrupting interaction | MTMTLHTKASGMALLHQIQGNELEPLNRPQLKMPMERALGEVYVDNSKPTVFNYPEGAAYEFNAAAAAAAAASAPVYGQSGIAYGPGSEAAAFSANSLGAFPQLNSVSPSPLMLLHPPPQLSPFLHPHGQQVPYYLENEPSAYAVRDTGPPAFYRSNSDNRRQNGRERLSSSNEKGNMIMESAKETRYCAVCNDYASGYHYGVWSCEGCKAFFKRSIQGHNDYMCPATNQCTIDKNRRKSCQACRLRKCYEVGMMKGGIRKDRRGGRMLKHKRQRDDLEGRNEMGASGDMRAANLWPSPLVIKHTKKNSPALSLTADQMVSALLDAEPPMIYSEYDPSRPFSEASMMGLLTNLADRELVHMINWAKRVPGFGDLNLHDQVHLLECAWLEILMIGLVWRSMEHPGKLLFAPNLLLDRNQGKCVEGMVEIFDMLLATSSRFRMMNLQGEEFVCLKSIILLNSGVYTFLSSTLKSLEEKDHIHRVLDKITDTLIHLMAKAGLTLQQQHRRLAQLLLILSHIRHMSNKGMEHLYNMKCKNVVPLYDLLLEALDAHRLHAPASRMGVPPEEPSQTQLATTSSTSAHSLQTYYIPPEAEGFPNTI [M547A]
2 | disrupting interaction | MTMTLHTKASGMALLHQIQGNELEPLNRPQLKMPMERALGEVYVDNSKPTVFNYPEGAAYEFNAAAAAAAAASAPVYGQSGIAYGPGSEAAAFSANSLGAFPQLNSVSPSPLMLLHPPPQLSPFLHPHGQQVPYYLENEPSAYAVRDTGPPAFYRSNSDNRRQNGRERLSSSNEKGNMIMESAKETRYCAVCNDYASGYHYGVWSCEGCKAFFKRSIQGHNDYMCPATNQCTIDKNRRKSCQACRLRKCYEVGMMKGGIRKDRRGGRMLKHKRQRDDLEGRNEMGASGDMRAANLWPSPLVIKHTKKNSPALSLTADQMVSALLDAEPPMIYSEYDPSRPFSEASMMGLLTNLADRELVHMINWAKRVPGFGDLNLHDQVHLLECAWLEILMIGLVWRSMEHPGKLLFAPNLLLDRNQGKCVEGMVEIFDMLLATSSRFRMMNLQGEEFVCLKSIILLNSGVYTFLSSTLKSLEEKDHIHRVLDKITDTLIHLMAKAGLTLQQQHRRLAQLLLILSHIRHMSNKGMEHLYNMKCKNVVPLYDLLLEMADAHRLHAPASRMGVPPEEPSQTQLATTSSTSAHSLQTYYIPPEAEGFPNTI [L548A]
